In assay [1] the target is HLA-B*3501 (human).
Assay [2] addresses HLA-B*5101 (human).
Assay [3] has as its target HLA-B*5301 (human).
Assay [4] deals with HLA-B*0702 (human). Description: competition with 125I-labeled standard peptide for purified HLA, gel filtration. (In general: Size exclusion chromatography separates by hydrodynamic size, large species first.)
Assay [5] addresses HLA-B*3501 (human). Described as above.
Assay [6] addresses HLA-B*5101 (human). The description is as above.
The target of assay [7] is HLA-B*5301 (human). The description is as above.
For another assay, the target named is HLA-B*5401 (human). The description is as above.
Assay [8] has as its target HLA-A*1101 (human). As to the kind of experiment: competition with 125I-labeled standard peptide for purified HLA-A*1101, gel filtration.
Assay [9] concerns the target HLA-A*0301 (human). As to the kind of experiment: competition with 125I-labeled standard probe peptide for purified HLA-A*0301, gel filtration.
For assay [10], the target named is HLA-A*1101 (human). As to the kind of experiment: competition with 125I-labeled standard probe peptide for purified HLA-A*1101, gel filtration.
The target of assay [11] is HLA-B*0702 (human).
The target of assay [12] is HLA-A*0301 (human). Description: competition with 125I-labeled standard peptide for purified HLA, gel filtration.
Assay [13] addresses HLA-A*1101 (human). The description is as above.
The target in assay [14] is HLA-A*0201 (human). Description: competition with 125I-labeled standard probe peptide for purified HLA-A*0201, gel filtration.
Assay [15] concerns the target HLA-A*0201 (human). As to the kind of experiment: competition against 125I-labelled standard peptide on purified HLA-A*0201, gel filtration.
The target of another assay is HLA-A*2402 (human). Description: competition with 125I-labelled standard peptide for purified HLA, gel filtration.
Assay [16] has as its target HLA-A*0201 (human). Described as above.

The text below walks through data of US7026443.

Read-outs that look alike come from different tables or passages of the source.

Consider QPPKLRSSV (modifications not checked) [HPV18 E1 315 peptide …], for which the binding affinity ratio (IC50 of standard peptide / IC50 of test peptide) in the assay with HLA-B*3501 (human) [1] was 0.0003; with HLA-B*5101 (human) [2], 0.0002; with HLA-B*5301 (human) [3], 0.0002.
EPPKLRSTAA (modifications not checked) [HPV16 E1 308 …]: the binding affinity ratio (IC50 of standard peptide / IC50 of test peptide) worked out at 0.0002 with HLA-B*0702 (human) [4]; 0.0003 with HLA-B*3501 (human) [5]; 0.0002 in the assay with HLA-B*5101 (human) [6]; 0.0002 in the assay with HLA-B*5301 (human) [7]; 0.02 with HLA-B*5401 (human).
Consider LILALLRYK (modifications not checked) [HPV45 E1 267 peptide … (SEQ ID NO: 43681)], for which the relative binding ratio (IC50 of standard peptide / IC50 of test peptide) with HLA-A*1101 (human) [8] was 0.18.
For the molecule WLQPLADAK (modifications not checked) [HPV31 E1 489 peptide … (SEQ ID NO: 34685)], the relative binding ratio (IC50 of standard peptide / IC50 of test peptide) with HLA-A*0301 (human) [9] was 0.0005.
Take WLQPLADAK (modifications not checked) [HPV31 E1 489 peptide … (SEQ ID NO: 41921)]: the relative binding ratio (IC50 of standard peptide / IC50 of test peptide) in the assay with HLA-A*1101 (human) [10] was determined as 0.0002.
On to RPIVQFLRY (modifications not checked) [HPV18 E1 447 peptide …], for which the binding affinity ratio (IC50 of standard peptide / IC50 of test peptide) was determined as 0.0033 in the assay with HLA-B*0702 (human) [11], 0.04 with HLA-B*3501 (human) [1] and 0.023 in the assay with HLA-B*5301 (human) [3].
On to WPYLHNRLV (modifications not checked), for which the binding affinity ratio (IC50 of standard peptide / IC50 of test peptide) with HLA-B*0702 (human) [4] worked out at 0.052; with HLA-B*3501 (human) [5] it was 0.0003; in the assay with HLA-B*5101 (human) [6], 0.11; with HLA-B*5301 (human) [7], 0.0002; in the assay with HLA-B*5401 (human) it was 0.18.
With NVLKTSNAK (modifications not checked) [HPV16 E1 peptide … (position 196, 9 amino acids)], the relative binding ratio (IC50 of standard peptide / IC50 of test peptide) turned out to be 0.0005 with HLA-A*0301 (human) [12] and 0.0015 in the assay with HLA-A*1101 (human) [13]. In the assay with HLA-A*0301 (human) [9], the binding affinity ratio (IC50 of the standard peptide / IC50 of the test peptide) was 0.0005.
As for GTGCNGWFYV (modifications not checked) [HPV31 E1 peptide … (position 11, 10 amino acids)], in the assay with HLA-A*0201 (human) [14], the relative binding ratio (IC50 of standard peptide / IC50 of test peptide) (ratio to standard peptide) turned out to be 0.0006.
As for LACSWGMVV (modifications not checked) [HPV16 E1 267 …], the relative binding ratio (IC50 of standard peptide / IC50 of test peptide) with HLA-A*0201 (human) [15] amounted to 0.0006.
Turning to NAKAAMLAK (modifications not checked) [HPV16 E1 peptide … (position 202, 9 amino acids)], the relative binding ratio (IC50 of standard peptide / IC50 of test peptide) with HLA-A*0301 (human) [12] stood at 0.0005; in the assay with HLA-A*1101 (human) [13], 0.0031. Besides, in the assay with HLA-A*0301 (human) [9], the binding affinity ratio (IC50 of the standard peptide / IC50 of the test peptide) is 0.0005.
For NINAGTDSR (modifications not checked) [HPV16 E1 peptide … (position 567, 9 amino acids)], the results for the relative binding ratio (IC50 of standard peptide / IC50 of test peptide) with HLA-A*0301 (human) [12] and with HLA-A*1101 (human) [13] were 0.0005 and 0.0002, respectively. Moreover, in the assay with HLA-A*0301 (human) [9], the binding affinity ratio (IC50 of the standard peptide / IC50 of the test peptide) came to 0.0005.
For the molecule VFEFAFKDLF (modifications not checked) [HPV18 E6 position 44, 10-mer …], the binding affinity ratio (IC50 of standard peptide / IC50 of test peptide) in the assay with HLA-A*2402 (human) was 0.036.
Consider WPYLHNRLVV (modifications not checked), for which the binding affinity ratio (IC50 of standard peptide / IC50 of test peptide) in the assay with HLA-B*0702 (human) [4] was found to be 0.095; with HLA-B*3501 (human) [5] it was 0.0012; with HLA-B*5101 (human) [6], 0.074; in the assay with HLA-B*5301 (human) [7] it was 0.0002; in the assay with HLA-B*5401 (human), 0.076.
As for ILYAHIQCL (modifications not checked) [HPV18 E1 266 peptide …], the binding affinity ratio (IC50 of standard peptide / IC50 of test peptide) in the assay with HLA-A*0201 (human) [16] (remark: other sources report otherwise) is 0.081.
As to ILLTTNIHPA (modifications not checked) [HPV18 E1 569 peptide …], in the assay with HLA-A*0201 (human) [16], the binding affinity ratio (IC50 of standard peptide / IC50 of test peptide) came out at 0.08.
Regarding RPIVQFLRY (modifications not checked) [HPV45 E1 433 peptide …], the results for the binding affinity ratio (IC50 of standard peptide / IC50 of test peptide) (ratio relative to standard peptide) with HLA-B*0702 (human) [11], with HLA-B*3501 (human) [1] and in the assay with HLA-B*5301 (human) [3] were 0.0033, 0.04 and 0.023, respectively.
On to TLRLCVQST (modifications not checked) [HPV31 E7 peptide … (position 64, 9 amino acids)], for which the relative binding ratio (IC50 of standard peptide / IC50 of test peptide) with HLA-A*0201 (human) [14] came out at 0.0061.
Still for that read-out and setting: the figure for STLRLCVQST (modifications not checked) [HPV31 E7 peptide … (position 63, 10 amino acids)] is 0.0012.
Regarding LLCVSPMCM (modifications not checked) [HPV16 E1 297 …], in the assay with HLA-A*0201 (human) [15], the relative binding ratio (IC50 of standard peptide / IC50 of test peptide) turned out to be 0.0008.
Turning to GVLILALLR (modifications not checked) [HPV45 E1 265 … (SEQ ID NO: 43630)], the relative binding ratio (IC50 of standard peptide / IC50 of test peptide) in the assay with HLA-A*1101 (human) [10] was 0.14.
For LLITSNINA (modifications not checked) [HPV16 E1 562 …], the relative binding ratio (IC50 of standard peptide / IC50 of test peptide) with HLA-A*0201 (human) [15] is 0.0022.
Take PYKLPDLCTEL (modifications not checked) [HPV18 E6 position 11, 11-mer …]: the binding affinity ratio (IC50 of standard peptide / IC50 of test peptide) with HLA-A*2402 (human) came to 0.0064.
With VYCKTVLEL (modifications not checked) [HPV18 E6 position 33, 9-mer …], in the assay with HLA-A*2402 (human), the binding affinity ratio (IC50 of standard peptide / IC50 of test peptide) came out at 0.022.
In the case of IAEGFKTLI (modifications not checked) [HPV18 E1 254 peptide …], the binding affinity ratio (IC50 of standard peptide / IC50 of test peptide) with HLA-A*0201 (human) [16] was found to be 0.0003.
GDTPEWIQR (modifications not checked) [HPV45 E1 327 … (SEQ ID NO: 43619)]: the relative binding ratio (IC50 of standard peptide / IC50 of test peptide) with HLA-A*1101 (human) [10] was found to be 0.0002.
As for KLLSKLLCV (modifications not checked) [HPV16 E1 292 …], in the assay with HLA-A*0201 (human) [15], the relative binding ratio (IC50 of standard peptide / IC50 of test peptide) was found to be 0.051.
With DPQERPRKL (modifications not checked) [HPV16 E6 11 …], the binding affinity ratio (IC50 of standard peptide / IC50 of test peptide) with HLA-B*0702 (human) [4] turned out to be 0.0001; in the assay with HLA-B*3501 (human) [5], 0.0001; with HLA-B*5101 (human) [6], 0.0001; with HLA-B*5301 (human) [7] it was 0.0001; in the assay with HLA-B*5401 (human), 0.0002.
CMCCKCEARI (modifications not checked) [HPV18 E7 position 63, 10-mer …]: the binding affinity ratio (IC50 of standard peptide / IC50 of test peptide) in the assay with HLA-A*2402 (human) turned out to be 0.0001.
